Measured values reported in US10359406B2, “Diagnosis and treatment of preeclampsia” (A1M Pharma AB, priority 2007, dated 2019).

B1: α1m: Recombinant human α1-microglobulin expressed in E. coli; small plasma and tissue protein, heme-binder and radical scavenger (protein, UniProt P02760 20-203, looked up)
Alpha-1-microglobulin: GPVPTPPDNIQVQENFNISRIYGKWYNLAIGSTCPWLKKIMDRMTVSTLVLGEGATEAEISMTSTRWRKGVCEETSGAYEKTDTDGKFLYHKSKWNITMESYVVHTNYDEYAIFLTKKFSRHHGPTITAKLYGRAPQLRETLLQDFRVVAQGVGIPEDSIFTMADRGECVPGEQEPEPILIPRV
modifications: Alpha-1-microglobulin

Legend:
[1] = system: K562 cells; test: Scavenging of cell-bound heme from K562 cells (spectrophotometry, visual); format: cell-based, human; conditions: cells preloaded with 10 μM heme 30 min; protein 2 or 10 μM, 2 h
Experimental: FIG. 18. Scavenging of cell heme by α1m. Human erythroleukemic cells (K562) were cultured with either buffer or 10 μM heme for 30 minutes, washed and resuspended in fresh culture medium. A: The cells were then incubated with α1m (2 or 10 μM) for 2 hours, after which time the culture medium was saved. The cells were washed and solubilized by suspending in a buffer containing 1% NP-40. The culture medium and cellsuspension were then analysed spectrophotometrically by reading the absorbance spectra (300-700 nm). B: The various cultures were also analysed visually. Cells were incubated with either buffer or 10 μM heme for 30 min (Step 1), washed and then incubated with buffer, 10 μM α1m or 10 μM AGP for 2 hours (Step 2), washed and solubilized as described above.
To study the mechanisms of the cytoprotective effect of α1m, we performed a series of experiments attempting to analyze the interactions between the protein and cell-bound heme. […] The culture media were saved, cells washed and solubilized, and both media and solubilized cells analyzed by spectrophotometry (FIG. 18A) and visually (FIG. 18B). Heme was seen as a strong brown-coloring of the cells and the typical absorbance spectrum with a non-distinct peak around 400 nm. […]

[2] = human blood plasma glycoprotein; read-out: Kd of heme binding; cited from earlier work
[3] = system: haemoglobin; test: Haemoglobin-α1m complex isolated from placenta tissue (anti-α1m affinity column, SDS-PAGE, Western blotting); format: binding, human; conditions: 43-kDa band reacting with anti-α1m and anti-Hb-A; lost with mercaptoethanol
Experimental: FIG. 20 show SDS-PAGE and Western blotting of a haemoglobin-α1m complex isolated from placenta tissue. A placenta from a healthy donor was homogenized and centrifuged at 100,000 G for 60 min. The supernatant was applied to an anti-α1m Affigel column which was rinsed and eluted with 0.1 M glycine-HCl, pH 2.3. The eluate was separated by SDS-PAGE which was either stained with Coommassie (two left lanes) or transferred to PVDF membranes and blotted with anti-α1m or anti-Hb-A.
Molecules containing α1m were purified from placenta tissue as described [Berggård et al., 1999]. Approximately 200 g of an apparently normal term human placenta, taken within 3 hours after delivery, were homogenized in 200 ml of 50 mM Tris-HCl, pH 8.0, 0.25 M sucrose, 2 mM EDTA, pepstatin, 1 mg/l, antipain, 5 mg/l, and leupeptin, 10 mg/l, using a Potter-Elvehjem apparatus with a tight-fitting teflon pestle. The homogenate was centrifuged at 10,000 G for 10 min. This pellet was washed by repeatedly suspending 1:1 in the homogenization buffer and recentrifugation at 10,000 G for 10 min. The supernatant was centrifuged at 100,000 G for 90 min. This pellet, containing the placenta membranes and membrane-bound proteins, was dissolved in 40 ml homogenization buffer also containing 0.5% (w/v) Nonidet P-40 (BDH Chemicals) and centrifuged at 20,000 G for 30 min to remove particulate material. […]

[4] = system: collagen; test: Heme-induced oxidation of collagen/LDL; carbonyl groups measured by ELISA; format: biochemical
Experimental: FIG. 17. Reduction of carbonyl groups on oxidized collagen by α1m. Collagen, coated to microtiter plates, was oxidized by incubation with 50 μM heme for 17 h. After washing, 0.1, 0.3 or 1 μM α1m, ovalbumin or ascorbate were added, and incubated for 2 h. Carbonyl groups were measured by ELISA. Each column represents the mean of triplicates+/−SE
(§1) The anti-oxidation properties of α1m are illustrated in FIGS. 16 and 17. […] A possible mechanism for these actions may be the reductase properties of α1m, reducing the oxidants, the oxidation modifications, or both.

[5] = system: K562 cells; test: Heme-induced cell lysis/death of K562 cells (propidium iodide, FACS); format: cell-based, human; conditions: extracellularly added α1m 2, 5 or 10 μM; 200 μM heme, 4 h
Experimental: (§2) FIG. 16. A. Cell-protective properties of α1m against heme- and ROS-induced oxidation. K562 cells were labelled with the oxidation-sensitive probe H2DCFDA, washed, and incubated with α1m (2, 5 or 10 μM), AGP (2, 5 or 10 μM) or ascorbate (10 μM) prior to the addition of 10 μM heme. The cells were incubated for 2 h and analysed with FACS. B. K562 cells were cultured with α1m (2, 5 or 10 μM) or a control protein (α1-acid glycoprotein, AGP) (10 μM) prior to the addition of 200 μM heme and cultured 4 h. The cell suspension was collected, mixed with propidium iodide and analysed with FACS.
as §1

[6] = system: K562 cells; test: Heme- and ROS-induced oxidation of K562 cells (H2DCFDA probe, FACS); format: cell-based, human; conditions: extracellularly added α1m 2, 5 or 10 μM; 10 μM heme, 2 h
Experimental: as §2, §1

| Molecule | effect on cell-bound heme [1] | Kd [2] | binding of haemoglobin in placenta tissue [3] | heme- and ROS-induced oxidation of collagen, LDL, membrane lipids and whole cells [4] | removal of pre-formed oxidation products (carbonyl groups) on collagen and LDL ([4]; collagen oxidized with 50 μM heme 17 h, 0.1, 0.3 or 1 μM α1m, 2 h) | cell lysis (cell death) induced by heme [5] | oxidation of cell cytosol and cytosol protein thiol groups by heme and ROS [6] |
| --- | --- | --- | --- | --- | --- | --- | --- |
| AGP: control protein (α1-acid glycoprotein), control lipocalin [reference compound] | did not have any effect | – | – | – | – | – | – |
| Hemopexin: glycoprotein (60 kDa) found in human blood plasma which eliminates free heme by binding it strongly | – | ~1 pM | – | – | – | – | – |
| B1 | almost completely removed from the cells | – | haemoglobin is bound by α1m | inhibited | removed pre-formed oxidation products | inhibits the cell lysis | inhibit the oxidation |
